Numbered stars: 1 amine (or outer) side, 2 acyl side, 3 side chain; on linkers, the order of the positions; unused ones are H or OH. Bridge positions count the residues as written; N and C are the ends. Side chains are listed from the residue outwards. Ends that are not written are not given here. * marks the point of attachment. C20 diacid = O=C(O)CCCCCCCCCCCCCCCCCCC(=O)*; γGlu = O=C(O)[C@H](CCC(=O)[*:2])N[*:1]; AEEA = NCCOCCOCC(=O)O

Assay [1] addresses T1, rat calcitonin receptor (rat, UniProt P32214 25-516).
T1 construct: whole, on cells; Used as membranes prepared from BHK tk'ts 13 cells transiently transfected with the rat calcitonin receptor (Assay VIII); also called rCTR; rat calcitonin (a) receptor
T1 sequence (looked up): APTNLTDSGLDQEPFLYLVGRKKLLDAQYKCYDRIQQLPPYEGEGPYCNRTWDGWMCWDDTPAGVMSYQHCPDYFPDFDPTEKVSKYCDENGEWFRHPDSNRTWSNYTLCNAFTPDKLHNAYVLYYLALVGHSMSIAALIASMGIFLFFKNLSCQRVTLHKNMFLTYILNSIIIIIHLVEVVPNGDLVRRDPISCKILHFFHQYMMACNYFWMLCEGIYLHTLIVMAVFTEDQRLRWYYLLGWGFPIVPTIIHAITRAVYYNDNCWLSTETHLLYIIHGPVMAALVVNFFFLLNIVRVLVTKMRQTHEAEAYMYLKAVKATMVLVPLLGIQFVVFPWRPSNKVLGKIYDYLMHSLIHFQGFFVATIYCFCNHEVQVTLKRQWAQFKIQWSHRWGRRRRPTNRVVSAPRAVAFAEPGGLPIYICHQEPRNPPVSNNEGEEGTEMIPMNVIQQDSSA
As to the kind of experiment: IC50 on rat CTR divided by IC50 on rat amylin receptor (Assays VIII/VI).

For assay [2], the target named is T2, human calcitonin receptor (human, UniProt P30988 25-474).
T2 construct: whole, on cells; Used as membranes prepared from a BHK tk'ts 13 cell line stably transfected with the human calcitonin receptor (Assay VII); also called hCTR; hCT
T2 sequence (looked up): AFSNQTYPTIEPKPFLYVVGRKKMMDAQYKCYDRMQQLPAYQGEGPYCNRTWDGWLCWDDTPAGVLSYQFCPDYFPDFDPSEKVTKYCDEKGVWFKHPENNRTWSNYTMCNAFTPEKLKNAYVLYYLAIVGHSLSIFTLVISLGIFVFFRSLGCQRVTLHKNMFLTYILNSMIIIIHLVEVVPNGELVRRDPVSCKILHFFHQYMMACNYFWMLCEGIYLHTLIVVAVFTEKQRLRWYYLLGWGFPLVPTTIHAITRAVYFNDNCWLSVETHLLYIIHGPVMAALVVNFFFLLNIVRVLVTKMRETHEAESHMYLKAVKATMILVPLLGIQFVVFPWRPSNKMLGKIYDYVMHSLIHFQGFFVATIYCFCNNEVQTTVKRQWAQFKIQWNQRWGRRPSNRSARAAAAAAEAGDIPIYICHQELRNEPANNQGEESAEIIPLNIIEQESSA
As to the kind of experiment: IC50 on human CTR divided by IC50 on human amylin receptor (Assays VII/V). The procedure, abridged: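 Membranes (35 ng/μL final) + SPA beads, 50 mM Hepes pH 7.4 buffer with 1 mM CaCl2, 5 mM MgCl₂, 0.1% OA, 0.02% Tween20; 120 min, 25° C, shaking; centrifuged, counted; IC₅₀ by one-site binding competition.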

The target in assay [3] is T1, rat calcitonin receptor. As to the kind of experiment: SPA competition with 125I-calcitonin, membranes of BHK cells with rat CTR (Assay VIII).
Assay [4] concerns the target T3, rat amylin receptor (rat calcitonin receptor + rat RAMP 3) (rat, UniProt P32214 25-516; Q9JJ73 23-147).
T3 construct: whole, on cells; Used as membranes prepared from BHK tk'ts 13 cells transiently transfected with rat calcitonin receptor and rat RAMP 3 (Assay VI); also called rAmylin-R; rat amylin 3(a) receptor
T3 sequence (looked up) 1: T1 sequence (looked up)
T3 sequence (looked up) 2: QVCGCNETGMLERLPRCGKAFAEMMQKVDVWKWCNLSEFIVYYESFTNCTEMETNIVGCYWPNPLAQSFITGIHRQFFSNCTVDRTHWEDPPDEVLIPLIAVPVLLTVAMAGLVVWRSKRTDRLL
Kind of assay: SPA competition with 125I-rat amylin, membranes of BHK cells with rat CTR + rat RAMP3 (Assay VI).

Assay [5] addresses T4, rat calcitonin receptor (rat, UniProt P32214 25-516).
T4 construct: whole, on cells; Membranes of transiently transfected BHK tk'ts 13 cells (Assay VIII); also called rCTR
T4 sequence (looked up): T1 sequence (looked up)
As to the kind of experiment: ratio IC50 rat calcitonin receptor / IC50 rat amylin receptor (reference).

The target in assay [6] is T5, human calcitonin receptor (human, UniProt P30988 25-474).
T5 construct: whole, on cells; Membranes of a stably transfected BHK cell line (Assay VII); also called hCTR; hCT
T5 sequence (looked up): T2 sequence (looked up)
As to the kind of experiment: ratio IC50 human calcitonin receptor / IC50 human amylin receptor (reference). Here is the method: The resulting pellet was resuspended, homogenized and centrifuged (20.000 rpm, 15 min) in a buffer containing 20 mM Na-HEPES and 0.1 mM EDTA (pH 7.4, buffer 2). The resulting pellet was resuspended in buffer 2 and protein concentration was measured (BCA protein Assay, Pierce). The homogenate was kept cold during the whole procedure. The membranes were kept at −80° C. until use. The assay was performed in a 384 well Optiplate (PerkinElmer) in a total volume of 40 ul. Membranes were mixed with SPA beads. Final concentration of membranes 35 ng/μL final and SPA beads was 0.05 mg/well. Test-compounds were dissolved in DMSO and further diluted in assay buffer (50 mM Hepes, pH 7.4, 1 mM CaCl2, 5 mM MgCl₂, 0.1% OA and 0.02% Tween20). […] The final mixture was incubated with shaking at 400 rpm for 120 min at 25° C. prior to centrifugation (1500 rpm, 10 min). Samples were analyzed on TopCounter™ (Packard). The IC₅₀ was calculated using (one site binding competition analysis) GraphPad Prism5 as a measure of receptor affinity.
Membranes were prepared in the following way; the cells were rinsed with PBS and incubated with Versene for approximately 5 min before harvesting. The cells were flushed with PBS and the cell-suspension was centrifuged for 5 min at 1000 rpm. Cells were homogenized (Ultrathurrax) in a buffer containing 20 mM Na-HEPES and 10 mM EDTA (pH 7.4) and centrifuged at 20.000 rpm for 15 min. The resulting pellet was resuspended, homogenized and centrifuged (20.000 rpm, 15 min) in a buffer containing 20 mM Na-HEPES and 0.1 mM EDTA (pH 7.4, buffer 2). The resulting pellet was resuspended in buffer 2 and protein concentration was measured (BCA protein Assay, Pierce). The homogenate was kept cold during the whole procedure. The membranes were kept at −80° C. until use. Assay was performed in a 384 well Optiplate (PerkinElmer) in a total volume of 40 ul. Membranes were mixed with SPA beads.

Assay [7] concerns the target T4, rat calcitonin receptor. Kind of assay: SPA competition with 125I-calcitonin, membranes of BHK cells with rat calcitonin receptor (Assay VIII).
Assay [8] concerns the target T6, rat amylin receptor (rat calcitonin receptor + rat RAMP 3) (rat, UniProt P32214 25-516; Q9JJ73 23-147).
T6 construct: whole, on cells; Membranes of transiently transfected BHK tk'ts 13 cells (Assay VI); also called rAmylin-R; rat amylin 3(a) receptor
T6 sequence (looked up) 1: T1 sequence (looked up)
T6 sequence (looked up) 2: T3 sequence (looked up) 2
Kind of assay: SPA competition with 125I-rat amylin, membranes of BHK cells with rat calcitonin receptor + rat RAMP3 (Assay VI).

B1: N^ε-[2-[2-[2-[[(4S)-4-carboxy-4-(19-carboxynonadecanoylamino)butanoyl]amino]ethoxy]ethoxy]acetyl]Lys[Arg1,Arg17,Pro21,Pro27,His35]-h-amylin (peptide)
peptide: K([AEEA-γGlu-C20 diacid])RCNTATCATQRLANFLRHSSPNFGAIPSSTNVGSHTY-NH2
modifications: disulfide 3-8; N-terminus assumed
SMILES: CC[C@H](C)[C@H](NC(=O)[C@H](C)NC(=O)CNC(=O)[C@H](Cc1ccccc1)NC(=O)[C@H](CC(N)=O)NC(=O)[C@@H]1CCCN1C(=O)[C@H](CO)NC(=O)[C@H](CO)NC(=O)[C@H](Cc1c[nH]cn1)NC(=O)[C@H](CCCNC(=N)N)NC(=O)[C@H](CC(C)C)NC(=O)[C@H](Cc1ccccc1)NC(=O)[C@H](CC(N)=O)NC(=O)[C@H](C)NC(=O)[C@H](CC(C)C)NC(=O)[C@H](CCCNC(=N)N)NC(=O)[C@H](CCC(N)=O)NC(=O)[C@@H](NC(=O)[C@H](C)NC(=O)[C@@H]1CSSC[C@H](NC(=O)[C@H](CCCNC(=N)N)NC(=O)[C@@H](N)CCCCNC(=O)COCCOCCNC(=O)CC[C@H](NC(=O)CCCCCCCCCCCCCCCCCCC(=O)O)C(=O)O)C(=O)N[C@@H](CC(N)=O)C(=O)N[C@@H]([C@@H](C)O)C(=O)N[C@@H](C)C(=O)N[C@@H]([C@@H](C)O)C(=O)N1)[C@@H](C)O)C(=O)N1CCC[C@H]1C(=O)N[C@@H](CO)C(=O)N[C@@H](CO)C(=O)N[C@H](C(=O)N[C@@H](CC(N)=O)C(=O)N[C@H](C(=O)NCC(=O)N[C@@H](CO)C(=O)N[C@@H](Cc1c[nH]cn1)C(=O)N[C@H](C(=O)N[C@@H](Cc1ccc(O)cc1)C(N)=O)[C@@H](C)O)C(C)C)[C@@H](C)O
notes: Analogue of human amylin; also called compound 45
In the case of B1, the “Ratio rCT/rAmylin binding” value with rat calcitonin receptor [1] turned out to be 67.1. Further, in assay [2], the “Ratio hCT/hAmylin binding” value is 26.8. The values for the half-maximal inhibitory concentration (IC50) (in the assay with rat calcitonin receptor [3]; in assay [4]) were 41.8 nM and 0.623 nM, respectively.

B2: N^ε1-[(4S)-4-carboxy-4-(19-carboxynonadecanoylamino)butanoyl]-[Arg17,Pro21,Pro27]-h-amylin (peptide)
peptide: K([γGlu-C20 diacid])CNTATCATQRLANFLRHSSPNFGAIPSSTNVGSNTY-NH2
modifications: disulfide 2-7; N-terminus assumed
SMILES: CC[C@H](C)[C@H](NC(=O)[C@H](C)NC(=O)CNC(=O)[C@H](Cc1ccccc1)NC(=O)[C@H](CC(N)=O)NC(=O)[C@@H]1CCCN1C(=O)[C@H](CO)NC(=O)[C@H](CO)NC(=O)[C@H](Cc1c[nH]cn1)NC(=O)[C@H](CCCNC(=N)N)NC(=O)[C@H](CC(C)C)NC(=O)[C@H](Cc1ccccc1)NC(=O)[C@H](CC(N)=O)NC(=O)[C@H](C)NC(=O)[C@H](CC(C)C)NC(=O)[C@H](CCCNC(=N)N)NC(=O)[C@H](CCC(N)=O)NC(=O)[C@@H](NC(=O)[C@H](C)NC(=O)[C@@H]1CSSC[C@H](NC(=O)[C@@H](N)CCCCNC(=O)CC[C@H](NC(=O)CCCCCCCCCCCCCCCCCCC(=O)O)C(=O)O)C(=O)N[C@@H](CC(N)=O)C(=O)N[C@@H]([C@@H](C)O)C(=O)N[C@@H](C)C(=O)N[C@@H]([C@@H](C)O)C(=O)N1)[C@@H](C)O)C(=O)N1CCC[C@H]1C(=O)N[C@@H](CO)C(=O)N[C@@H](CO)C(=O)N[C@H](C(=O)N[C@@H](CC(N)=O)C(=O)N[C@H](C(=O)NCC(=O)N[C@@H](CO)C(=O)N[C@@H](CC(N)=O)C(=O)N[C@H](C(=O)N[C@@H](Cc1ccc(O)cc1)C(N)=O)[C@@H](C)O)C(C)C)[C@@H](C)O
notes: Analogue of human amylin; also called compound 48
Consider B2, for which the “Ratio rCT/rAmylin binding” value with rat calcitonin receptor [1] is 201. In assay [2], the “Ratio hCT/hAmylin binding” value stood at 69.7. For the same molecule, the IC50 with rat calcitonin receptor [3] was 112 nM; in assay [4] it was 0.558 nM.

B3: N^ε1-[(4S)-4-carboxy-4-[[(4S)-4-carboxy-4-(19-carboxynonadecanoylamino)butanoyl]amino]butanoyl]-[Glu14,Arg17,Pro21,Pro27,His34]-h-amylin (peptide)
peptide: K([γGlu-γGlu-C20 diacid])CNTATCATQRLAEFLRHSSPNFGAIPSSTNVGHNTY-NH2
modifications: disulfide 2-7; N-terminus assumed
SMILES: CC[C@H](C)[C@H](NC(=O)[C@H](C)NC(=O)CNC(=O)[C@H](Cc1ccccc1)NC(=O)[C@H](CC(N)=O)NC(=O)[C@@H]1CCCN1C(=O)[C@H](CO)NC(=O)[C@H](CO)NC(=O)[C@H](Cc1c[nH]cn1)NC(=O)[C@H](CCCNC(=N)N)NC(=O)[C@H](CC(C)C)NC(=O)[C@H](Cc1ccccc1)NC(=O)[C@H](CCC(=O)O)NC(=O)[C@H](C)NC(=O)[C@H](CC(C)C)NC(=O)[C@H](CCCNC(=N)N)NC(=O)[C@H](CCC(N)=O)NC(=O)[C@@H](NC(=O)[C@H](C)NC(=O)[C@@H]1CSSC[C@H](NC(=O)[C@@H](N)CCCCNC(=O)CC[C@H](NC(=O)CC[C@H](NC(=O)CCCCCCCCCCCCCCCCCCC(=O)O)C(=O)O)C(=O)O)C(=O)N[C@@H](CC(N)=O)C(=O)N[C@@H]([C@@H](C)O)C(=O)N[C@@H](C)C(=O)N[C@@H]([C@@H](C)O)C(=O)N1)[C@@H](C)O)C(=O)N1CCC[C@H]1C(=O)N[C@@H](CO)C(=O)N[C@@H](CO)C(=O)N[C@H](C(=O)N[C@@H](CC(N)=O)C(=O)N[C@H](C(=O)NCC(=O)N[C@@H](Cc1c[nH]cn1)C(=O)N[C@@H](CC(N)=O)C(=O)N[C@H](C(=O)N[C@@H](Cc1ccc(O)cc1)C(N)=O)[C@@H](C)O)C(C)C)[C@@H](C)O
notes: also called compound 87
For B3, the “Ratio rCT/rAmylin binding” value with rat calcitonin receptor [5] was 45.6. Moreover, the “Ratio hCT/hAmylin binding” value in assay [6] came to 35.6. In addition, the figures for the half-inhibitory concentration (IC50) (with rat calcitonin receptor [7]; in assay [8]) were 94.5 nM and 2.07 nM, respectively.

Source of the values: patent publication US20140087995A1 (published 2014).
